Test results from IntAct's records for PubMed 20150898.

B1: Actin cytoskeleton-regulatory complex protein SLA1 (Saccharomyces cerevisiae), P32790 (parent)
chain: MTVFLGIYRAVYAYEPQTPEELAIQEDDLLYLLQKSDIDDWWTVKKRVIGSDSEEPVGLVPSTYIEEAPVLKKVRAIYDYEQVQNADEELTFHENDVFDVFDDKDADWLLVKSTVSNEFGFIPGNYVEPENGSTSKQEQAPAAAEAPAATPAAAPASAAVLPTNFLPPPQHNDRARMMQSKEDQAPDEDEEGPPPAMPARPTATTETTDATAAAVRSRTRLSYSDNDNDDEEDDYYYNSNSNNVGNHEYNTEYHSWNVTEIEGRKKKKAKLSIGNNKINFIPQKGTPHEWSIDKLVSYDNEKKHMFLEFVDPYRSLELHTGNTTTCEEIMNIIGEYKGASRDPGLREVEMASKSKKRGIVQYDFMAESQDELTIKSGDKVYILDDKKSKDWWMCQLVDSGKSGLVPAQFIEPVRDKKHTESTASGIIKSIKKNFTKSPSRSRSRSRSKSNANASWKDDELQNDVVGSAAGKRSRKSSLSSHKKNSSATKDFPNPKKSRLWVDRSGTFKVDAEFIGCAKGKIHLHKANGVKIAVAADKLSNEDLAYVEKITGFSLEKFKANDGSSSRGTDSRDSERERRRRLKEQEEKERDRRLKERELYELKKARELLDEERSRLQEKELPPIKPPRPTSTTSVPNTTSVPPAESSNNNNSSNKYDWFEFFLNCGVDVSNCQRYTINFDREQLTEDMMPDINNSMLRTLGLREGDIVRVMKHLDKKFGRENIASIPTNATGNMFSQPDGSLNVATSPETSLPQQLLPQTTSPAQTAPSTSAETDDAWTVKPASKSESNLLSKKSEFTGSMQDLLDLQPLEPKKAAASTPEPNLKDLEPVKTGGTTVPAAPVSSAPVSSAPAPLDPFKTGGNNILPLSTGFVMMPMITGGDMLPMQRTGGFVVPQTTFGMQSQVTGGILPVQKTGNGLIPISNTGGAMMPQTTFGAAATVLPLQKTGGGLIPIATTGGAQFPQTSFNVQGQQQLPTGSILPVQKTANGLISANTGVSMPTVQRTGGTMIPQTSFGVSQQLTGGAMMTQPQNTGSAMMPQTSFNAVPQITGGAMMPQTSFNALPQVTGGAMMPLQRTGGALNTFNTGGAMIPQTSFSSQAQNTGGFRPQSQFGLTLQKTGGIAPLNQNQFTGGAMNTLSTGGVLQQQQPQTMNTFNTGGVMQELQMMTTFNTGGAMQQPQMMNTFNTDGIMQQPQMMNTFNTGGAMQQPQQQALQNQPTGFGFGNGPQQSRQANIFNATASNPFGF

Columns and labels:
clh_yeast CHC1, P22137 [1] = variants of: B1; settings: with clh_yeast CHC1, P22137
Sequence of clh_yeast CHC1, P22137 (P22137 whole entry): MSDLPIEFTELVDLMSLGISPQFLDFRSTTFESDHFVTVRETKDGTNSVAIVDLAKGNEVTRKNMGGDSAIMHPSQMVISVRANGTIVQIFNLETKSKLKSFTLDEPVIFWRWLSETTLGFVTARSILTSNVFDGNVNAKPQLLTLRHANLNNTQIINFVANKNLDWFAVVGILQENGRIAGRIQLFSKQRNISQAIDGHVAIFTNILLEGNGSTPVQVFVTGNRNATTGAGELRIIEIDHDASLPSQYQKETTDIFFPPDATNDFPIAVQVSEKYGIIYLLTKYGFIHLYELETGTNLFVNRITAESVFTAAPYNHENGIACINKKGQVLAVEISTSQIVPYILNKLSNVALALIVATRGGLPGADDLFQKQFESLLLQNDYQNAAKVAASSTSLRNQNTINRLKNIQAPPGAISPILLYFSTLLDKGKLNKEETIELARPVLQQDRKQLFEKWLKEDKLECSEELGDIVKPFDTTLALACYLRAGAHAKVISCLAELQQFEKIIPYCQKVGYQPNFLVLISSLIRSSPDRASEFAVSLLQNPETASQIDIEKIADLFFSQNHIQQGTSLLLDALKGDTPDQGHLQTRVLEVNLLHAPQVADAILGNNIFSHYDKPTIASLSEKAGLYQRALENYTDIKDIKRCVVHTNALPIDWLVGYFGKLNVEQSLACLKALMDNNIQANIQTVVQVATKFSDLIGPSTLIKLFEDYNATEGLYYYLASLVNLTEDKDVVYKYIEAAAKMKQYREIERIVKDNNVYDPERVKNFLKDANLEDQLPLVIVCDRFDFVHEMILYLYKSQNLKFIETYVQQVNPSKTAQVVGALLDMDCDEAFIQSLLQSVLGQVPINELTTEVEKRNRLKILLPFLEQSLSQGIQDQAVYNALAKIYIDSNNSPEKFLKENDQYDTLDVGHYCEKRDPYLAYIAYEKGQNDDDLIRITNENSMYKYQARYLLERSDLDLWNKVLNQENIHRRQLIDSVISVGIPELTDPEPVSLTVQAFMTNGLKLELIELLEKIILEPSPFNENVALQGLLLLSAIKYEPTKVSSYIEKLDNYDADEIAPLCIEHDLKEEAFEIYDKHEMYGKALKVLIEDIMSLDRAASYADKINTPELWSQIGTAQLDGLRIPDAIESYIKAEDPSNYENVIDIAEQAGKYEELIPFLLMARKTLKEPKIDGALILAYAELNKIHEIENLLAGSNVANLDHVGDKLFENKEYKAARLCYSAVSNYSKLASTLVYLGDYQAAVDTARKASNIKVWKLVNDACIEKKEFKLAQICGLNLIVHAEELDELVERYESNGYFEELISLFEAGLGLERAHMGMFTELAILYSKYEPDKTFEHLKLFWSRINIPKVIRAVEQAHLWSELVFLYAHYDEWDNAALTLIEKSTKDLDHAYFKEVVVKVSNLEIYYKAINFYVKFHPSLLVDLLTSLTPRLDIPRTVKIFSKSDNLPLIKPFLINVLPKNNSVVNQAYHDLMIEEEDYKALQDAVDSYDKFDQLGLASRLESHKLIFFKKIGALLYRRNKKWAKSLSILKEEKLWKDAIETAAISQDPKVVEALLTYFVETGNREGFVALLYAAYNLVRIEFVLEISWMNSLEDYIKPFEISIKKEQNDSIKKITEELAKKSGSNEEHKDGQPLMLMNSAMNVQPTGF

clh_yeast CHC1, P22137 [2] = variants of: B1; settings: with clh_yeast CHC1, P22137; remark: listed apart in the source

Row | effect of a mutation on the interaction (clh_yeast CHC1, P22137 [1]) | effect of a mutation on the interaction (clh_yeast CHC1, P22137 [2]) | Variant
1 | decreasing interaction | disrupting interaction | L803A
2 | decreasing interaction | disrupting interaction | L804A
3 | decreasing interaction | disrupting interaction | D805A
